Results on 4 substances are retold here after US20020193570A1.

Assay [1] concerns the target IL-12 receptor on human PBMC (human) (UniProt P42701). The assay can be described thus: cell-based or functional assay.
Assay [2] addresses IL-12 receptor on mouse effector cells (mouse) (UniProt Q60837). The assay can be described thus: cell-based or functional assay.
In assay [3] the target is KS antigen recognized by the KS-1/4 antibody (plate-coated / as antigen) (UniProt P16422). Kind of assay: ELISA, plates coated with KS antigen, detection with anti-human IL-12 p40 antibody. (In general: ELISA stands for enzyme-linked immunosorbent assay.)
KS antigen recognized by the KS-1/4 antibody (plate-coated / as antigen), sequence (P16422 24-265 limits assumed): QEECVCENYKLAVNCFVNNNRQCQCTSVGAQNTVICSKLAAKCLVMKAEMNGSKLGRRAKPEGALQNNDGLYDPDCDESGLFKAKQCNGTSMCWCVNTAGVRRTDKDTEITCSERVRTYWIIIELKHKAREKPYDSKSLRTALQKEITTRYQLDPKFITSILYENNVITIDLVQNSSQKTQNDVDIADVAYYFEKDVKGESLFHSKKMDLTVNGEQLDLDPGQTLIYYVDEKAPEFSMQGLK

IL-12 receptor on mouse effector cells (mouse), sequence (Q60837 20-738, chain 1 of 2): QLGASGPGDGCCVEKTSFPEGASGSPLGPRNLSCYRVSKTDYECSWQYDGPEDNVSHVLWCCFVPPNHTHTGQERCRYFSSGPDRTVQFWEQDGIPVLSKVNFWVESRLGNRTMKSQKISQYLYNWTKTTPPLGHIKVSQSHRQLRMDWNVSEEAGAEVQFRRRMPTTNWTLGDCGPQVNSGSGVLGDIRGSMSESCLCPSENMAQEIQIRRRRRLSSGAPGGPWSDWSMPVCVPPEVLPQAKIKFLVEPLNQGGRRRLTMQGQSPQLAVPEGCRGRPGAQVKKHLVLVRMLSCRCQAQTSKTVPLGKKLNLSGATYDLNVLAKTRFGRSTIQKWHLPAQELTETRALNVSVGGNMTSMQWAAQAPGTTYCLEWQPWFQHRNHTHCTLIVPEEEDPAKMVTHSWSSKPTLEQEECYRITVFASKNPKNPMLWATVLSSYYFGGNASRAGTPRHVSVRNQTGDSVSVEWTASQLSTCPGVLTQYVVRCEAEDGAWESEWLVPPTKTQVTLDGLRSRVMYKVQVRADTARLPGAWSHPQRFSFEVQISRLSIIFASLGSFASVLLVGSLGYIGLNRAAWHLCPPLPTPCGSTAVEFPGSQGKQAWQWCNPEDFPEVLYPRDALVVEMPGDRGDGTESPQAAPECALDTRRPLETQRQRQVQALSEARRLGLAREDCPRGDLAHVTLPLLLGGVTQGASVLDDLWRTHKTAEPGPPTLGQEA
IL-12 receptor on mouse effector cells (mouse), sequence (P97378 24-874, chain 2 of 2, further chain): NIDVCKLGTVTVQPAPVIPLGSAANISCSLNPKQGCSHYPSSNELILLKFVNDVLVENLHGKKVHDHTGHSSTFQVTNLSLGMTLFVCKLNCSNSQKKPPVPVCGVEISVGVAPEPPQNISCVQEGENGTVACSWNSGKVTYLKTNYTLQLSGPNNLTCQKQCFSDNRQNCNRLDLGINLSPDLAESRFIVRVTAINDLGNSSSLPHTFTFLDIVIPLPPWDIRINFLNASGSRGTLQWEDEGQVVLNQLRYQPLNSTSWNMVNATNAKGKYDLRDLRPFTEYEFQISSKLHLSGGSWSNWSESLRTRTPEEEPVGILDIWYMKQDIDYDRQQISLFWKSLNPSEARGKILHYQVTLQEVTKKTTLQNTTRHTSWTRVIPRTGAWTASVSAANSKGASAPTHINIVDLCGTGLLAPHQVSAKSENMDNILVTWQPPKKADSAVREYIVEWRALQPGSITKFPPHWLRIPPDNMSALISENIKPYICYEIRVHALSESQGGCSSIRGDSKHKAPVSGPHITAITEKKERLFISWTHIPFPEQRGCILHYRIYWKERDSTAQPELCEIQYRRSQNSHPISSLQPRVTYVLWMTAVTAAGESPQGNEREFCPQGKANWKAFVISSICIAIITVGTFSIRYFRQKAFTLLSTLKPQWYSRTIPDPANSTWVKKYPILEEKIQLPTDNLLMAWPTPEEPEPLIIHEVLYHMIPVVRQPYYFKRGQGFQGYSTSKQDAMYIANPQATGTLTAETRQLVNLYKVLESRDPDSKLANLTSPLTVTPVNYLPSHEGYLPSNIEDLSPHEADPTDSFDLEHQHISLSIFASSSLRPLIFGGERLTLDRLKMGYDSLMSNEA
IL-12 receptor on human PBMC (human), sequence (Q99665 24-862, chain 2 of 2, other chains not shown): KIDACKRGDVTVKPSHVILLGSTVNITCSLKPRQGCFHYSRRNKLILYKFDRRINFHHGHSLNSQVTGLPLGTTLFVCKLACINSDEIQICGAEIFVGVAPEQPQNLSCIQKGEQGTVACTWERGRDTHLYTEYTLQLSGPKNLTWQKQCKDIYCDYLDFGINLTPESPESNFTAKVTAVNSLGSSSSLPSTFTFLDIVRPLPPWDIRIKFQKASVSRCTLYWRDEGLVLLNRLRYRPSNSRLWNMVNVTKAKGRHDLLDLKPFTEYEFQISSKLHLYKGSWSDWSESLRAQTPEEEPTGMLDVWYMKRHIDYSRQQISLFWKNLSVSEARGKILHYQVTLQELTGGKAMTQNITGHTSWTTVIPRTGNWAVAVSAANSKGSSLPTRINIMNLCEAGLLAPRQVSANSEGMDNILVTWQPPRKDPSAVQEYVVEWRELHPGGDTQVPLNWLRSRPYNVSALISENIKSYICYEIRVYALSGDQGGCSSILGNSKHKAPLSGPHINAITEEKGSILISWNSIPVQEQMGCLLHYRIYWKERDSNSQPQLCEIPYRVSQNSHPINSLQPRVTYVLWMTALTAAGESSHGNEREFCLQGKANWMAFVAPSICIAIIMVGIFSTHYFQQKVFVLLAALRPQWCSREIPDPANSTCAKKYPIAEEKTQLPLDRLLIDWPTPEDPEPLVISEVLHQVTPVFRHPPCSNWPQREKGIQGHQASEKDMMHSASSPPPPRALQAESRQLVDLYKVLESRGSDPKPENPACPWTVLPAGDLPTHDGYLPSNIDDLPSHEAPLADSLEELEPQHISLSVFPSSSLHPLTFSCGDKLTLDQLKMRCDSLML

In the case of “Hu-KS-1/4-mouse p35 human p40 fusion protein (from UniProt P01857 1-330; P43431 23-215; P29460 23-328) (antibody)”, the induction of IFN-γ secretion from PHA-activated PBMC in assay [1] (scale: fold less active than Hu-KS-IL-12 with human IL-12 chains) worked out at 4. For the same substance, in assay [2] (scale: fold less active than the mouse IL-12 standard), the induction of IFN-γ secretion from mouse effector cells pre-stimulated with Concanavalin A was found to be 50.

“Hu-KS-IL-12 fusion protein with both human IL-12 chains (from UniProt P01857 1-330; P29459 23-219; P29460 23-328) (antibody)”: in assay [1], the induction of IFN-γ secretion from PHA-activated PBMC (fold less active than the IL-12 standard) was 6.

Regarding “single-chain fusion protein with a mouse p35 subunit and a human p40 subunit (KS-1/4 scFv-mouse p35/human p40) (from UniProt P43431 23-215; P29460 23-328)”, the induction of IFN-γ secretion from mouse cells (fold less than the mouse IL-12 control) in assay [2] is 50. In assay [3], this substance yielded an intensity of binding against the whole KS-1/4 antibody (fold lower than whole KS-1/4 antibody) of 3.

The substance “single-chain fusion protein with human p35 and p40 subunits (KS-1/4 scFv-human IL-12) (from UniProt P29459 23-219; P29460 23-328)” displayed an intensity of binding against the whole KS-1/4 antibody (fold lower than whole KS-1/4 antibody) in assay [3] of 3.
